Results taken from article PMC5938747.

Test system: Nc1ccn([C@@H]2O[C@H](COP(=O)(O)OP(=O)(O)O)[C@@H](O)[C@H]2O)c(=O)n1
Experiment: purified protein
Conditions: 10 mM ATP, MgCl2 4 mM excess, pH 8.0, 25 °C

Cj1415 (cytidine diphosphoramidate kinase, CDK) (Campylobacter jejuni subsp. jejuni NCTC 11168 = ATCC 700819)
Km: 4.2 ± 0.7 mM
kcat: 0.64 ± 0.04 s⁻¹
